Data from IntAct's records for PubMed 10675337.

B1: GA-binding protein subunit beta-1 (Homo sapiens), Q06547-2 (parent)
chain: MSLVDLGKKLLEAARAGQDDEVRILMANGAPFTTDWLGTSPLHLAAQYGHYSTTEVLLRAGVSRDARTKVDRTPLHMAASEGHASIVEVLLKHGADVNAKDMLKMTALHWATEHNHQEVVELLIKYGADVHTQSKFCKTAFDISIDNGNEDLAEILQIAMQNQINTNPESPDTVTIHAATPQFIIGPGGVVNLTDETGVSAVQFGNSSTSVLATLAALAEASAPLSNSSETPVVATEEVVTAESVDGAIQQVVSSGGQQVITIVTDGIQLGNLHSIPTSGIGQPIIVTMPDGQQVLTVPATDIAEETVISEEPPAKRQCIEIIENRVESAEIEEREALQKQLDEANREAQKYRQQLLKKEQEAEAYRQKLEAMTRLQTNKEAV

Variants of: B1
Conditions: with hcfc1_human HCFC1, P51610
hcfc1_human HCFC1, P51610, sequence (P51610 whole entry): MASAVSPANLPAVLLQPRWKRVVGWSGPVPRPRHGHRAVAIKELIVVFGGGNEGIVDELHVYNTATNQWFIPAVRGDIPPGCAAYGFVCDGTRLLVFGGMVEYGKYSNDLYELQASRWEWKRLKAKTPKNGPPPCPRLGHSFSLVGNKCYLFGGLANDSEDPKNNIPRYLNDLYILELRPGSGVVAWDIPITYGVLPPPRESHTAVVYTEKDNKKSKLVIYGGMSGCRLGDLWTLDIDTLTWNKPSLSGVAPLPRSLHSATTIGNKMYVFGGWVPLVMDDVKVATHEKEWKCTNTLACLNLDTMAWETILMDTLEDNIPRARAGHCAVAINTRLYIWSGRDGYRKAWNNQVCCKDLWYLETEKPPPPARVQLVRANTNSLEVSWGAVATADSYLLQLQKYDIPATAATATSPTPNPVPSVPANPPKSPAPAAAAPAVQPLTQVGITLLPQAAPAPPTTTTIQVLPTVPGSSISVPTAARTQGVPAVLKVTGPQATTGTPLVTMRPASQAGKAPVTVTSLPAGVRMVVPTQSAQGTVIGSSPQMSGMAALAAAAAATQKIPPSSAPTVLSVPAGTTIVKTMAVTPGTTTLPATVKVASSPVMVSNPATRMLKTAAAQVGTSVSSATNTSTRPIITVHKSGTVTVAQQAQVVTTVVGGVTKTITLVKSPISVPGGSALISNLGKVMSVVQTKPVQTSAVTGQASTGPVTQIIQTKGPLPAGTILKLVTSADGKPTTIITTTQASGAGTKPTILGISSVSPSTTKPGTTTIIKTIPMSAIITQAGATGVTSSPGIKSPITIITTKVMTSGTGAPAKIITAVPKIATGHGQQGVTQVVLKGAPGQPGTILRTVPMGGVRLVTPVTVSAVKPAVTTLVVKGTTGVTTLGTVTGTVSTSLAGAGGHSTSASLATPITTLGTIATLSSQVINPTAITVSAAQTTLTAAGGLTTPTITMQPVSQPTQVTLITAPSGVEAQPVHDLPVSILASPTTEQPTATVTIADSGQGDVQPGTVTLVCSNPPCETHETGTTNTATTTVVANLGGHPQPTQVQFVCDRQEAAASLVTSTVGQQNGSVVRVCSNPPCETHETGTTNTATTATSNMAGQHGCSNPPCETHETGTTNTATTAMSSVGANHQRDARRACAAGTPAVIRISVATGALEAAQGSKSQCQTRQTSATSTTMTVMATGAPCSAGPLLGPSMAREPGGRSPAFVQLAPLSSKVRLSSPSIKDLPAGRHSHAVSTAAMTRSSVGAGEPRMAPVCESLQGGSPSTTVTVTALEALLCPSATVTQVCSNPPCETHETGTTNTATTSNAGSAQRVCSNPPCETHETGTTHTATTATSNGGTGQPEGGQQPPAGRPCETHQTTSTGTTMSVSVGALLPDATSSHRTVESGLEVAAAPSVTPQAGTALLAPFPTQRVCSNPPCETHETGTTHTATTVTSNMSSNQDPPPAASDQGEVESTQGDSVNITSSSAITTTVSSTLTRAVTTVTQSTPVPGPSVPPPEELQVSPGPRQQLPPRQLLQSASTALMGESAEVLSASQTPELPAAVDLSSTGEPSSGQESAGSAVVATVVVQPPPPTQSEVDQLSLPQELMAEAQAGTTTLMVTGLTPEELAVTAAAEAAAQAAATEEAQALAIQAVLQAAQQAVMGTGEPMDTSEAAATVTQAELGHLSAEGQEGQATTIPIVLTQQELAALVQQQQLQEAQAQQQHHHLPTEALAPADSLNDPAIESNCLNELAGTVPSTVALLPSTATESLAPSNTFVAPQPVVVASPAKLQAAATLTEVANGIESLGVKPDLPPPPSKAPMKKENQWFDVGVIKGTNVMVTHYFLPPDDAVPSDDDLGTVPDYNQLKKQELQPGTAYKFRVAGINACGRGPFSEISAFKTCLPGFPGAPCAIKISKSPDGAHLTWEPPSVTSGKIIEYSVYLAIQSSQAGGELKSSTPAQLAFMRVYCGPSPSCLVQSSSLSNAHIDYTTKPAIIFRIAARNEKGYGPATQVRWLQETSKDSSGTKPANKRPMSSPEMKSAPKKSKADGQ

| effect of a mutation on the interaction | Variant |
| --- | --- |
| decreasing interaction | MSLVDLGKKLLEAARAGQDDEVRILMANGAPFTTDWLGTSPLHLAAQYGHYSTTEVLLRAGVSRDARTKVDRTPLHMAASEGHASIVEVLLKHGADVNAKDMLKMTALHWATEHNHQEVVELLIKYGADVHTQSKFCKTAFDISIDNGNEDLAEILQIAMQNQINTNPESPDTVTIHAATPQFIIGPGGVVNLTDETGVSAVQFGNSSTSVLATLAALAEASAPLSNSSETPVVATEEVVTAESVDGAIQQVVSSGGQQVITIVTDGIQLGNLHSIPTSGIGQPIIVTMPDGQQALTAPATDIAEETVISEEPPAKRQCIEIIENRVESAEIEEREALQKQLDEANREAQKYRQQLLKKEQEAEAYRQKLEAMTRLQTNKEAV [V295A;V298A] |
| decreasing interaction | MSLVDLGKKLLEAARAGQDDEVRILMANGAPFTTDWLGTSPLHLAAQYGHYSTTEVLLRAGVSRDARTKVDRTPLHMAASEGHASIVEVLLKHGADVNAKDMLKMTALHWATEHNHQEVVELLIKYGADVHTQSKFCKTAFDISIDNGNEDLAEILQIAMQNQINTNPESPDTVTIHAATPQFIIGPGGVVNLTDETGVSAVQFGNSSTSVLATLAALAEASAPLSNSSETPVVATEEVVTAESVDGAIQQAASSGGQQVITIVTDGIQLGNLHSIPTSGIGQPIIVTMPDGQQVLTVPATDIAEETVISEEPPAKRQCIEIIENRVESAEIEEREALQKQLDEANREAQKYRQQLLKKEQEAEAYRQKLEAMTRLQTNKEAV [V252A;V253A] |
